Test results reported in PMC10536834, “Elucidating the Role of a Calcium-Binding Loop in an x-Prolyl Aminodipeptidase from Lb. helveticus” (ACS Omega, 2023).

Substrate: NCC(=O)N1CCC[C@H]1C(=O)Nc1ccc([N+](=O)[O-])cc1
Experiment: purified protein
Type: biochemical, Lactobacillus helveticus
Details: 50 mM MES pH 6.5, 40 °C, 200 nM enzyme, 75-500 μM substrate

Protein	Km
PepX (x-prolyl aminodipeptidase) from Lactobacillus helveticus (Lactobacillus helveticus) (protein, recombinant, N-terminal six-histidine tag, pET14b, E. coli BL21(DE3)pLysS; PepX known to form dimers) MKYNQYAYVETDFQQQVKELIDINFLPKNYQVWDFSSLLAKLVKNAIAEAKTDAAKNAKLAEFAVSDHQTLADFLKEKPTEIGTKQFYNVALQLLGYHVHYDYDFADPTGFMQRNALPFLQDISDNQKLISAFYRLLNTRAKNGQILLDVMAGKGYFTQFWGQNKFKFFNGKSIPVFDTNKVIREVVYVETDLDTDHDGKSDLIQVTVFRPEETNKGLKVPALYTASPYFGGIIANEKRNHNVDENLSDSTEWNDPQYVHSPIVKAEKPDGSSRPATEEAVHKSSYPLNEYMLARGFASVFAGAIGTRGSDGVRITGAPEETESAAAVIEWLHGDRVAYTDRTRTVQTTADWCNGNIGMTGRSYLGTLQIAIATTGVKGLKTVVSEAAISSWYDYYREHGLVIAPEACQGEDLDLLAETCQSNLWDAGSYLKIKPEYDKMQKQLREKEDRNTGQYSDFWEARNYRHHADGIKCSWISVHGLNDWNVKPKNVYKIWQLVKKMPMKHHLFLHQGPHYNMNNLVSIDFTDLMNLWFVHELLGIENNAYNQWPTVMIQDNLQADKWHEEPDWSNDLGQEKIYYPTDEGELFQDGNGKAQKSFTDVGGIEFKKAGISESDWQYKFICGDEKWAKPSLRFETDEFTHPTTIVGRPEVKVRVSASLPKGEISVALVELGERQRLTATPKFLMHGGQELGYRFGTDTLQEFVPDKKTKAKLITKAHMNLQNFKDMKKPEAIDADKFYDLDFLLQPTYYTIPSGSKLALIIYSTDQGMTKRPLEDETYTIDLANTEIKFYEK	302 µM
PepX (x-prolyl aminodipeptidase) from Lactobacillus helveticus (Lactobacillus helveticus; D196A) (protein, recombinant, N-terminal six-histidine tag, pET14b, E. coli BL21(DE3)pLysS; PepX known to form dimers) MKYNQYAYVETDFQQQVKELIDINFLPKNYQVWDFSSLLAKLVKNAIAEAKTDAAKNAKLAEFAVSDHQTLADFLKEKPTEIGTKQFYNVALQLLGYHVHYDYDFADPTGFMQRNALPFLQDISDNQKLISAFYRLLNTRAKNGQILLDVMAGKGYFTQFWGQNKFKFFNGKSIPVFDTNKVIREVVYVETDLDTAHDGKSDLIQVTVFRPEETNKGLKVPALYTASPYFGGIIANEKRNHNVDENLSDSTEWNDPQYVHSPIVKAEKPDGSSRPATEEAVHKSSYPLNEYMLARGFASVFAGAIGTRGSDGVRITGAPEETESAAAVIEWLHGDRVAYTDRTRTVQTTADWCNGNIGMTGRSYLGTLQIAIATTGVKGLKTVVSEAAISSWYDYYREHGLVIAPEACQGEDLDLLAETCQSNLWDAGSYLKIKPEYDKMQKQLREKEDRNTGQYSDFWEARNYRHHADGIKCSWISVHGLNDWNVKPKNVYKIWQLVKKMPMKHHLFLHQGPHYNMNNLVSIDFTDLMNLWFVHELLGIENNAYNQWPTVMIQDNLQADKWHEEPDWSNDLGQEKIYYPTDEGELFQDGNGKAQKSFTDVGGIEFKKAGISESDWQYKFICGDEKWAKPSLRFETDEFTHPTTIVGRPEVKVRVSASLPKGEISVALVELGERQRLTATPKFLMHGGQELGYRFGTDTLQEFVPDKKTKAKLITKAHMNLQNFKDMKKPEAIDADKFYDLDFLLQPTYYTIPSGSKLALIIYSTDQGMTKRPLEDETYTIDLANTEIKFYEK	315 µM
